Measured values: patent publication US20240082401A1

Legend:
[1] = molecular target: BCMA-41BB-CD3-CAR (monospecific BCMA CAR), expressed on T cells; experiment: FACS, donor #57 single BCMA CAR-T cells, goat anti-mouse F(ab)2 staining
[2] = molecular target: CS1-BCMA-41BB-CD3 CAR (bispecific CS1-BCMA chimeric antigen receptor), expressed on T cells; experiment: FACS, donor #57 T cells, goat anti-mouse F(ab)2 staining
[3] = molecular target: CS1-BCMA-41BB-CD3 CAR (bispecific CS1-BCMA chimeric antigen receptor), expressed on T cells; experiment: FACS of CAR-transduced T cells stained with biotinylated goat anti-mouse F(ab)2 and PE-streptavidin
[4] = molecular target: monospecific CS1 CAR, expressed on T cells; experiment: FACS, donor #57 CS1 CAR-T cells; detection reagent not named in the sentence (taken as anti-mouse F(ab)2)
[5] = molecular target: CS1-BCMA-41BB-CD3 CAR (bispecific CS1-BCMA chimeric antigen receptor), expressed on T cells; experiment: FACS, donor #890 T cells, goat anti-mouse F(ab)2 staining

Sequence of CS1-BCMA-41BB-CD3 CAR (bispecific CS1-BCMA chimeric antigen receptor), expressed on T cells (chain, as listed by the source mutant): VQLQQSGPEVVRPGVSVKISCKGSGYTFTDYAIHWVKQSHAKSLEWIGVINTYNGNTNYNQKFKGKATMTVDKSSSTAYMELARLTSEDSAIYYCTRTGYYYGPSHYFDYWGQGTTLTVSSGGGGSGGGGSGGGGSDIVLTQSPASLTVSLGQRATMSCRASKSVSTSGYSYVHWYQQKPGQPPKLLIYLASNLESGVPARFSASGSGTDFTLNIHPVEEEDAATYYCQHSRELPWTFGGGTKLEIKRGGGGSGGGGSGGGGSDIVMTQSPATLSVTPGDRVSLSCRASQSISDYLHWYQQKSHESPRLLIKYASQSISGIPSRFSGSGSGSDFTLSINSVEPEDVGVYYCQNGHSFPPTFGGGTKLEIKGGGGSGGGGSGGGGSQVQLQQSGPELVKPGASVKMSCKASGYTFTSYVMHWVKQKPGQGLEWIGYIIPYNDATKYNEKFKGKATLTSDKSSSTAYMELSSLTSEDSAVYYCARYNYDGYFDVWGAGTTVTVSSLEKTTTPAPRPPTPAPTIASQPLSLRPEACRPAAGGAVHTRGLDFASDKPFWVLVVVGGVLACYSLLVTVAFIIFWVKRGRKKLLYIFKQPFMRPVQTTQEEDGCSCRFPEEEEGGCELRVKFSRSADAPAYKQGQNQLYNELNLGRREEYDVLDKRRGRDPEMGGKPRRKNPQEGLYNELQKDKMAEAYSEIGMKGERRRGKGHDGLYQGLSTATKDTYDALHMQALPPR

Question: What does the source list for “Biotin-labeled polyclonal goat anti-mouse F(ab)2 antibody (Life Technologies)”?
Answer: proportion of CAR cells detected [1]: 57%; proportion of CAR cells detected [2]: > 70%; percentage of CAR+ cells detected [3]: > 95%; percentage of CAR+ cells [4]: 68%; proportion of CAR+ cells detected [5]: 81%
